The source of these data is PMC7293249.

In assay [1] the target is human activated protein C (human) (UniProt P04070).
Assay [2] shares this target. The source holds these as a separate data set.
For assay [3] the target is unchanged. The source holds these as a separate data set.
Assay [4] shares this target. As to the kind of experiment: ELISA; hAPC or hPC coated directly on Maxisorp plates at 100 ng/well in PBS/Ca2+; antibodies titrated, 1 h at RT; detection with HRP anti-human Fc. For orientation: An ELISA detects its analyte on a solid surface through an enzyme-linked reagent.
For assay [5] the target is unchanged. The source holds these as a separate data set.
The target is the same in assay [6]. Kind of assay: ELISA; APC-binding ELISA of the purified Fabs on human APC and Gla-domainless APC; format not told.

B1: type I anti-APC mAb TPP-2312 (BAY1316786) (antibody, V domains shown)
VH: EVQLLESGGGLVQPGGSLRLSCAASGFTFSSYWMSWVRQAPGKGLEWVSGVSWNGARTHYADSVKGRFTISRDNSKNTLYLQMNSLRAEDTAVYYCALTGRSGWMRFPNWFDPWGQGTLVTVSS
VL: QSVLTQPPSVSGAPGQRVTISCTGSSSNIGAAYDVHWYQQLPGTAPKLLIYGNNKRPSGVPDRFSGSKSGTSASLAITGLQAEDEADYYCQSYDSSLSGSVFGGGTKLTVL
As usually defined, the EC50 is the midpoint of the concentration-response curve. High values mean weaker potency, low ones greater potency. As for B1, in assay [1], the inhibition of APC amidolytic activity (Spectrozyme PCa), IC50 turned out to be 4.8 nM and the maximal inhibition of APC amidolytic activity (Spectrozyme PCa), mAb 0.5-500 nM turned out to be 98%. In assay [2], the Protac-aPTT in FVIII-antibody-treated normal human plasma, IC50 was 5 nM; the Protac-aPTT in hemophilia A plasma, inhibition of APC activity, IC50 came out at 5 nM; the Protac-aPTT in hemophilia A plasma, maximal inhibition of APC activity is 87%. The molecule further showed a TM–TGA in normal human plasma, increase of thrombin generation, EC50 in assay [3] of 38 nM. In addition, in assay [4], the EC50 turned out to be 0.4 nM. In assay [5], this molecule had a Protac-aPTT in normal human plasma, inhibition of APC anticoagulant activity, IC50 of 7 nM and a Protac-aPTT in normal human plasma, maximal inhibition of APC anticoagulant activity of 93%.

B2: C25K23Fab (type I Fab, TTP-2781) (Fab, V domains shown)
VH: EVQLLESGGGLVQPGGSLRLSCAASGFTFSSYWMSWVRQAPGKGLEWVSGVSWNGSRTHYADSVKGRFTISRDNSKNTLYLQMNSLRAEDTAVYYCALTGRSGWMRFPNWFDPWGQGTLVTVTS
VL: QSVLTQPPSASGTPGQRVTISCTGSSSNIGAAYDVHWYQQLPGTAPKLLIYGNNKRPSGVPDRFSGSKSGTSASLAISGLRSEDEADYYCQSYDSSLSGSVFGGGTKLTVL
On to B2, for which, in assay [6], the EC50 fell in the range of 2 to 4 nM.
